The values below come from publication PMC6160459 (Scientific Reports, 2018).

The target of this assay is T1, α4 integrin (CD49d) on JeKo-1 cells (Homo sapiens, endogenous on JeKo-1 cells, UniProt P13612).
T1 construct: integrin alpha-4 (CD49d); also called α4 chain of α4β1 integrin (VLA-4) and α4β7 integrin (LPAM-1); source: endogenous, on JeKo-1 cells
The experiment in a line: flow cytometry on cells; Ntz-01 premixed with natalizumab 1 h on ice in 5% FBS/DPBS/0.05% NaN3, then CD49d+ JeKo-1 cells 20 m on ice; cell-bound natalizumab detected with anti-human IgG4 Fc Alexa Fluor 647. Conditions: one partner purified.

B1: Natalizumab (antibody, V domains shown)
VH: QVQLVQSGAEVKKPGASVKVSCKASGFNIKDTYIHWVRQAPGQRLEWMGRIDPANGYTKYDPKFQGRVTITADTSASTAYMELSSLRSEDTAVYYCAREGYYGNYGVYAMDYWGQGTLVTVSS
VL: DIQMTQSPSSLSASVGDRVTITCKTSQDINKYMAWYQQTPGKAPRLLIHYTSALQPGIPSRFSGSGSGRDYTFTISSLQPEDIATYYCLQYDNLWTFGQGTKVEIK
notes: humanized heavy-chain variable region; light chain; IgG4; also called Tysabri; source: obtained from the UCSD Moores Cancer Center Pharmacy
For B1, the binding result is “binds”.
